Source: US20240343811A1 (SHANDONG SIMCERE BIOPHARMACUTICAL, published 2024)
Where two headings read alike, the source gives them in different places.

T1: human CD16b (NA2), full length, on FlpinCHO cells (human, UniProt O75015 17-200)
T1 construct: also called FlpinCHO-human CD16b (NA2)
T1 chain: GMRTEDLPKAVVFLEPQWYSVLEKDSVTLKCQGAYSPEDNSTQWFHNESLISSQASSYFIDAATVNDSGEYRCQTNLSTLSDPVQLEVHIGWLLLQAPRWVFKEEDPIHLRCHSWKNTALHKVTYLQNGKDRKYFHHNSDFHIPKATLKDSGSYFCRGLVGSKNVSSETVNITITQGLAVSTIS

T2: human CD16b (NA1), full length, on FlpinCHO cells (human, UniProt O75015 17-200)
T2 construct: also called FlpinCHO-human CD16b (NA1)
T2 chain: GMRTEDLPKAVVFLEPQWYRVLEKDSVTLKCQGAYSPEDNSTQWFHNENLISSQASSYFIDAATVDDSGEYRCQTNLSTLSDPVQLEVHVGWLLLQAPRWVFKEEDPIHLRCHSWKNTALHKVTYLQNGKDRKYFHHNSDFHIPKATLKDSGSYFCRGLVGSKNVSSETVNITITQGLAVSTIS


Key:
[1] = molecular target: T3, human CD16a (158V), full length, on cells (human, UniProt P08637 17-254); assay: cell-based or functional assay
T3 sequence (P08637 17-254 F176V limits assumed): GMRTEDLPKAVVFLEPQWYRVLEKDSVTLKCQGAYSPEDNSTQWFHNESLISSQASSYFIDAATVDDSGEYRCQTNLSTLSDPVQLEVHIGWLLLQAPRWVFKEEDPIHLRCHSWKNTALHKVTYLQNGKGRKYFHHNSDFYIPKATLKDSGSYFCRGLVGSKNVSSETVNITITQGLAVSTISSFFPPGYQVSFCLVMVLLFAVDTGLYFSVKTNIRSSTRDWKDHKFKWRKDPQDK

[2] = molecular target: T1, human CD16b (NA2), full length, on …; assay: FACS on FlpinCHO cells
Procedure: (§1) The required cells were scale-up cultured in a T-75 cell culture flask to the logarithmic growth phase. The medium was aspirated, and the cells were washed twice with a PBS buffer and then digested with trypsin. After the digestion was terminated, the cells were washed twice with the PBS buffer. The cells were counted, and then the cell pellet was resuspended with a [PBS+2% (w/w) BSA] blocking solution to 2×10⁶ cells/ml, and added to a 96-well FACS reaction plate at 50 μl/well. […] 50 μl/well of the antibody to be detected was added at different concentrations, and incubated on ice for 1 hour. […] The mixture was centrifuged and washed 5 times with PBS, and FACS (FACS Canto II, purchased from BD Company) was used for detection and result analysis. Data analysis was performed by software (CellQuest) to obtain the mean fluorescence intensity (MFI) of the cells. Then, software (GraphPad Prism8) was used for analysis, data fitting and EC50 value calculation.
(§2) The binding of an antibody to be detected to FlpinCHO-human CD16b cells was detected according to the method of Example 3.1.

[3] = molecular target: T2, human CD16b (NA1), full length, on …; assay: FACS on FlpinCHO cells
Procedure: as §1, §2

[4] = molecular target: T4, Human CD16a (158F)-his (human); assay: SPR (Biacore), antibody captured on Protein A
T4 construct: entry holds ECD, AVI tag, linker and His tag
T4 sequence (chain, as listed by the source limits assumed): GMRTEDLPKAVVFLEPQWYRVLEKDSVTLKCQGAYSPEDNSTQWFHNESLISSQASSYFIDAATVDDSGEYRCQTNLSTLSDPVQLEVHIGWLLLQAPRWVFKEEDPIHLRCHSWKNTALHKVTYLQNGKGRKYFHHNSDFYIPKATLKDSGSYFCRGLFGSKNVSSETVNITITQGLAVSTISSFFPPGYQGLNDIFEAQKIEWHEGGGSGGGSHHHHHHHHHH
Procedure: (§3) A sample buffer and a running buffer were HBS-EP+ (10 mM HEPES, 150 mM NaCl, 3 mM EDTA and 0.05% surfactant P20) (GE Healthcare; BR-1006-69). The flow-through cell was set to 25° C. The sample block was set to 16° C. Both were pretreated with the running buffer. In each cycle, an antibody to be detected was first captured with a Protein A chip, and then a single concentration of CD16 antigen protein was injected. The binding and dissociation processes of the antibody and the antigen protein were recorded, and finally Glycine pH 1.5 (GE Healthcare; BR-1003-54) was used to complete chip regeneration. Binding was measured by injecting different concentrations of recombinant human CD16-ECD his proteins in a solution for 240 s with a flow rate of 30 μL/min, wherein a total of 5 concentrations were prepared by using 200 nM as a starting concentration (see the detailed results for the actual concentration in the test) and performing a 1:1 dilution. The dissociation phase was monitored for up to 600 s and was triggered by switching from a sample solution to a running buffer. The surface was regenerated by washing with a 10 mM glycine solution (pH 1.5) for 30 s at a flow rate of 30 μL/min. Bulk refractive index difference was corrected by subtracting the response obtained from the goat anti-human Fc surface. Blank injection was also subtracted (=double reference). For calculation of apparent KD and other kinetic parameters, Langmuir 1:1 model was used.

[5] = molecular target: T3, human CD16a (158V), full length, on …; assay: FACS on FlpinCHO cells
Procedure: as §1
(§4) The binding of a humanized antibody to FlpinCHO-human CD16a cells was detected according to the method of Example 3.1.

[6] = molecular target: T5, human CD16a (158F), full length, on FlpinCHO cells (human, UniProt P08637 17-254); assay: FACS on FlpinCHO cells
T5 sequence (P08637 17-254 limits assumed): as the sequence (P08637 17-254 F176V limits assumed) above, with V160F counted along it
Procedure: as §1, §4

[7] = molecular target: T3, human CD16a (158V), full length, on …; assay: FACS on FlpinCHO cells; remark: listed apart in the source
Procedure: as §1

[8] = molecular target: T5, human CD16a (158F), full length, on …; assay: FACS on FlpinCHO cells; remark: listed apart in the source
Procedure: as §1

[9] = molecular target: T3, human CD16a (158V), full length, on …; assay: FACS, biotinylated antibody
Procedure: as §1, with “The” for “The required cells were scale-up cultured in a T-75 cell culture flask to the logarithmic growth phase. The”
(§5) An antibody to be detected was labeled in advance according to the instructions of a biotin labeling kit (EZ-Link™ NHS-PEG4 Biotinylation Kit, purchased from Thermofisher Scientific, catalog number: 21455). […] Detection was performed according to the method of Example 3.1, wherein the biotinylated antibody was detected with fluorescein APC-labeled Streptavidin (High Concentration) (purchased from Biolegend, catalog number: 405243).

[10] = molecular target: T5, human CD16a (158F), full length, on …; assay: FACS, biotinylated antibody
Procedure: as §1, with “The” for “The required cells were scale-up cultured in a T-75 cell culture flask to the logarithmic growth phase. The”
as §5

[11] = molecular target: T6, Human CD16a (158V)-his (human); assay: SPR (Biacore), antibody captured on Protein A
T6 construct: entry holds ECD, AVI tag, linker and His tag
T6 sequence (chain, as listed by the source limits assumed): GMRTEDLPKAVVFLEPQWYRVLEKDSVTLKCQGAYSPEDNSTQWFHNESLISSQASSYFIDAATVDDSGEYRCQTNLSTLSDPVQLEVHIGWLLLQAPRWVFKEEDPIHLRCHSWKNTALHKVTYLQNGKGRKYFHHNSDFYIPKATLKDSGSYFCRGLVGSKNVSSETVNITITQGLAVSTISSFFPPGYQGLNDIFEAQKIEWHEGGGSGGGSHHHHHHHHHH
Procedure: as §3

[12] = molecular target: T3, human CD16a (158V), full length, on …; assay: cell-based or functional assay; remark: listed apart in the source
[13] = molecular target: T3, human CD16a (158V), full length, on …; assay: FACS, biotinylated antibody, +10 mg/mL human immunoglobulin
Procedure: as §1, with “The” for “The required cells were scale-up cultured in a T-75 cell culture flask to the logarithmic growth phase. The”
as §5

[14] = molecular target: T5, human CD16a (158F), full length, on …; assay: as above
Procedure: as §1, with “The” for “The required cells were scale-up cultured in a T-75 cell culture flask to the logarithmic growth phase. The”
as §5

[15] = molecular target: T1, human CD16b (NA2), full length, on …; assay: FACS on FlpinCHO cells
Procedure: as §1, §2

[16] = molecular target: T2, human CD16b (NA1), full length, on …; assay: FACS on FlpinCHO cells
Procedure: as §1, §2

[17] = molecular target: T7, CD16 on primary human NK cells (human, UniProt P08637 17-254); assay: FACS on human NK cells
T7 construct: whole, on cells; also called resting NK cells
T7 sequence (P08637 17-254): as the sequence (P08637 17-254 F176V limits assumed) above, with V160F counted along it
Procedure: as §1
The binding of an antibody to be detected to freshly prepared human NK cells (Milestone Biotechnologies, catalog number: PB56-N-Custom) was detected according to the method of Example 3.1.

Kd [4] [nM]	koff [4] [s⁻¹]	kon [4] [M⁻¹ s⁻¹]	EC50 [7] [nM]	Maximum mean fluorescence intensity [7]	EC50 [8] [nM]	Maximum mean fluorescence intensity [8]	EC50 [9] [nM]	Maximum mean fluorescence intensity [9]	EC50 [10] [nM]	Maximum mean fluorescence intensity [10]	Kd [11] [nM]	koff [11] [s⁻¹]	kon [11] [M⁻¹ s⁻¹]	EC50, activation activity for Jurkat cell [12] [nM]	Maximum fluorescence value [12]	EC50 [13] [nM]	Maximum mean fluorescence intensity [13]	EC50 [14] [nM]	Maximum mean fluorescence intensity [14]	Binder	further results
28.7	0.00129	44800	–	–	–	–	–	–	–	–	–	–	–	–	–	–	–	–	–	VHH06-03 humanized VHH-Fc antibody (Fc fusion) EVQLVESGGGVVQPGGSLRLSCAASGSTWTTYAVRWYRQAPGKQREWVAFISVDGSTNYADSVKGRFTISRDNSKNTVYLQMNSLRAEDTADYICRVGGQYWGQGTMVTVSSEPKSSDKTHTCPPCPAPEEFGGPSVFLFPPKPKDTLMISRTPEVTCVVVAVSHEDPEVKFNWYVDGVEVHNAKTKPREEQYNSTYRVVSVLTVLHQDWLNGKEYKCKVSNKALPAPIEKTISKAKGQPREPQVYTLPPSREEMTKNQVSLTCLVKGFYPSDIAVEWESNGQPENNYKTTPPVLDSDGSFFLYSKLTVDKSRWQQGNVFSCSVMHEALHNHYTQKSLSLSPGK	EC50, activation activity for Jurkat cell [1]: 0.02 nM; Maximum fluorescence value [1]: 171000; Maximum mean fluorescence intensity [2]: 174; binding result [2]: no binding (tested: 100 nM); EC50 [3]: 0.35 nM; Maximum mean fluorescence intensity [3]: 56900; EC50 [5]: 0.49 nM; Maximum mean fluorescence intensity [5]: 8390; EC50 [6]: 0.47 nM; Maximum mean fluorescence intensity [6]: 9140
39.9	0.00247	61800	0.63	6480	0.44	5620	0.42	6980	0.31	4690	13.6	0.00146	107000	0.02	157000	1.39	9200	1.2	6040	VHH10 VHH-Fc antibody (Fc fusion) QVQLVESGGGLVQAGGSLRLSCVGSSSTLTTYAVRWYRQAPGKQREWVAFISVDGSTNYPDSVKGRFIVSRDNAKNTVYLQMNSLKPEDTADYICRAGGQYWGQGTQVTVSSEPKSSDKTHTCPPCPAPEFEGGPSVFLFPPKPKDTLMISRTPEVTCVVVAVSHEDPEVKFNWYVDGVEVHNAKTKPREEQYNSTYRVVSVLTVLHQDWLNGKEYKCKVSNKALPAPIEKTISKAKGQPREPQVYTLPPSREEMTKNQVSLTCLVKGFYPSDIAVEWESNGQPENNYKTTPPVLDSDGSFFLYSKLTVDKSRWQQGNVFSCSVMHEALHNHYTQKSLSLSPGK	Maximum mean fluorescence intensity [15]: 140; binding result [15]: no binding (tested: 100 nM); EC50 [16]: 0.34 nM; Maximum mean fluorescence intensity [16]: 51400; EC50 [17]: 0.45 nM; Maximum mean fluorescence intensity [17]: 2450
42.8	0.00273	63800	0.69	6490	0.44	5600	0.49	7260	0.4	5240	14.1	0.0016	114000	0.02	167000	1.41	9030	1.41	6570	VHH15 VHH-Fc antibody (Fc fusion) EVQLVESGGGLVQAGGSLRLSCVASTSTLTTYAVRWYRQAPGKQREWVAFISVDGNTNYPDSVKGRFIVSRDNAKNTVYLQMNSLKPEDTADYICRAGGQYWGQGTQVTVSSEPKSSDKTHTCPPCPAPEFEGGPSVFLFPPKPKDTLMISRTPEVTCVVVAVSHEDPEVKFNWYVDGVEVHNAKTKPREEQYNSTYRVVSVLTVLHQDWLNGKEYKCKVSNKALPAPIEKTISKAKGQPREPQVYTLPPSREEMTKNQVSLTCLVKGFYPSDIAVEWESNGQPENNYKTTPPVLDSDGSFFLYSKLTVDKSRWQQGNVFSCSVMHEALHNHYTQKSLSLSPGK	Maximum mean fluorescence intensity [15]: 178; binding result [15]: no binding (tested: 100 nM); EC50 [16]: 0.44 nM; Maximum mean fluorescence intensity [16]: 52100; EC50 [17]: 0.74 nM; Maximum mean fluorescence intensity [17]: 2400
